# Target: F5_SusD-like protein (uncultured human gut Bacteroides strain)
# Assay: SEC; Superdex 200 16/600 column; 20 mM Tris-HCl, 150 mM NaCl, pH 7.5
substance,measurement,value
F5_SusD-like protein (natural protein),stoichiometry N,2

# — paper PMC9599597
